This experiment deals with SARS-CoV-2 S protein S1 (SARS-CoV-2, UniProt P0DTC2 16-685).

B1: monoclonal antibody (mAb) m31A7 (antibody, V domains shown)
VH: EVQLQQSGPEMVKPGASVKISCKTSGYTFTEYTIYWVKQSHGKSLEWLGGINPNIGDTTYNQKFKGKATLTVDTSSSTAYMELRSLTSEDSAVYYCAREVYNYSFAYWGQGTLVTVSA
VL: DIVMSQSPSSLAVSVGEKVTMSCKSSQSLLYSSNQKNYLAWYQQKLGQTPKLLIYWASSRESGVPDRFTGSGSGTDFTLTISSVRAEDLAVYYCQQYYRYPLTFGVGTKLELKR
One may read the EC50 as the concentration at which the effect is half-maximal. Read a low EC50 as higher potency in that assay. Regarding B1, it took 0.0235 nM to reach a half-maximal effect (EC50).
